The record followed here is patent publication US20170129954A1 (PROTHENA BIOSCIENCES, published 2017).

For test [1], the target named is T1, human MCAM domain 1 (amino acids 19-129) hFc (human, UniProt P43121 19-129).
T1 construct: One of the various MCAMhFc domains captured on anti-human IgG Fc biosensors; also called MCAMhFc domain; not shown: human IgG Fc (hFc)
T1 sequence: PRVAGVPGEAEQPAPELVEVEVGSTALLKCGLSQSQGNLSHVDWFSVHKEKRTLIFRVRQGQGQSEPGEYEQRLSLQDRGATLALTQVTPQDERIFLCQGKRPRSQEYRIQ
Put plainly: ForteBio BLI, MCAMhFc domains on anti-human IgG Fc biosensors. From the text: (§1) The following protocol was used: ForteBio anti-human IgG Fc biosensors were used to immobilize various MCAMhFc domains including full length MCAMhFc protein on to biosensor surface. […] After loading these samples into a black 96 well plate, the Octet Red was programmed as follows: 60 seconds for baseline #1; 180 seconds for loading various domains; 60 seconds for baseline #2; 180 seconds for association of antibody to domain; and 240 seconds for dissociation of antibody from domain.
(§2) 1. MCAMhFc final concentration @ 5 ug/ml [0329] […] 3. ForteBio anti-human IgG Fc Capture (AHC) biosensors for kinetics experiments, cat #18-5060 [0331] 4. Block 96 well plate from Greiner Bio-one, cat #655209 [0332] 5. ForteBio Octet Red machine [0333] 6. Fresh tissue culture medium, DMEM with 20% FCS, was used as buffer for dilution The results from these analyses are as follows.

Test [2] addresses T2, human MCAM domain 2 (amino acids 139-242) hFc (human, UniProt P43121 139-242).
T2 construct: One of the various MCAMhFc domains captured on anti-human IgG Fc biosensors; also called MCAMhFc domain; not shown: human IgG Fc (hFc)
T2 sequence: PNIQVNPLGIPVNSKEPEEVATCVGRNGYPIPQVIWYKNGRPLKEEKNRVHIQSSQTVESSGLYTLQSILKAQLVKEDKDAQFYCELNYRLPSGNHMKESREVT
Described as above.
Excerpt: as §1, §2

For test [3], the target named is T3, combination of human MCAM domains 1 and 2 (amino acids 19-242) hFc (human, UniProt P43121 19-242).
T3 construct: One of the various MCAMhFc domains captured on anti-human IgG Fc biosensors; also called combination of domains 1 and 2; MCAMhFc domain; not shown: human IgG Fc (hFc)
T3 sequence: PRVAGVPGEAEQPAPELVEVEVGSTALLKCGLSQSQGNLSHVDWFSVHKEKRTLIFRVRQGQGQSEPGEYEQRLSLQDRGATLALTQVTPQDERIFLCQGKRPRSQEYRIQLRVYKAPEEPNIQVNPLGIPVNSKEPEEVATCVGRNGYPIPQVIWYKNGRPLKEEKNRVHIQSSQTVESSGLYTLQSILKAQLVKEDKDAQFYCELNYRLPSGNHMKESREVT
The description is as above.
Excerpt: as §1, §2

For test [4], the target named is T4, human MCAM C272A mutant (shotgun mutagenesis library, on BHK cells) (human, UniProt P43121 24-646).
T4 chain: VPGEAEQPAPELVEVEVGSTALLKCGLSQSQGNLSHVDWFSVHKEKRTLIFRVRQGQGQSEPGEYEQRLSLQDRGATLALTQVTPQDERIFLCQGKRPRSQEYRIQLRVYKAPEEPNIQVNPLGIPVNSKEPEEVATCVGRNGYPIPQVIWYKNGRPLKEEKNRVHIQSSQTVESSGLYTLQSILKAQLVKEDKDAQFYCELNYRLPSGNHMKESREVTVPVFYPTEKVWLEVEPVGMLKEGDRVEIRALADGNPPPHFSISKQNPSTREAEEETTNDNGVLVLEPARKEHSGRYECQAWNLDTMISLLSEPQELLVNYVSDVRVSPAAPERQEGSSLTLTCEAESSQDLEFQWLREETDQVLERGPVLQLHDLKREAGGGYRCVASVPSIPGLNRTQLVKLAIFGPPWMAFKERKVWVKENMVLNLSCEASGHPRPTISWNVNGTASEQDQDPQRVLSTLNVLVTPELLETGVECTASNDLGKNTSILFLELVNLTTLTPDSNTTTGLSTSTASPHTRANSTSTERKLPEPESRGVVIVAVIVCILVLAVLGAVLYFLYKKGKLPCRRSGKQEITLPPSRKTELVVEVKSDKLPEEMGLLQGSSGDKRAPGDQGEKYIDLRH
Put plainly: shotgun mutagenesis library, immunofluorescence on BHK cells, 0.5 µg/mL antibody. The method, then: (§3) Secondary antibodies from Jackson ImmunoResearch were used at 1:400 for MAb and sera detection.
(§4) The mutation library was assayed for surface expression (mouse sera binding) and monoclonal antibody binding, in triplicate. Each raw data point was background-subtracted and normalized to the wild type MCAM reactivity values. The mean monoclonal antibody binding value for each clone is plotted as a function of its mean surface expression value (FIG. 1, gray diamonds). Thresholds of <30% monoclonal antibody reactivity and >50% mouse sera binding were applied to identify clones (FIG. 1, black diamonds) that were negative for monoclonal antibody binding but positive for surface expression.

The target of test [5] is T5, human MCAM V340A mutant (shotgun mutagenesis library, on BHK cells) (human, UniProt P43121 24-646).
T5 chain: T4 chain with A249C, V317A
Described as above. As to the method: as §3, §4

Substitutions are numbered along the chain they refer to.

B1: mouse anti-human MCAM monoclonal antibody clone 1749.1.3 (antibody, V domains shown)
VH: DVKLVESGGDLVKPGGSLKLSCAASGFTFSSYIMSWVRQTPEKRLEWVATISSGGSSTYYPDSVKGRFTISRDNAKNTLYLQMSSLKSEDTAMYYCTRDDDYDVKVFAYWGQGTLVTVSA
VL: DIVMSQSPSSLAVSAGEKVTMNCKSSRSLLNSRIRKNYLAWYQQKPGQSPKLLIYWASTRESGVPDRFTGSGSGTDFTLTISSVQAEDLAVYYCKQSYNLLTFGAGTKLELK
notes: Mouse hybridoma monoclonal antibody; also called m1749
In the case of B1, the binding result in test [1] is on record as “no binding (tested: 5 ug/ml)”; in test [2] it was “no binding (tested: 5 ug/ml)”; in test [3], “no binding (tested: 5 ug/ml)”; in test [4], “no binding (tested: <30% WT)”; in test [5], “no binding (tested: <30% WT)”.
